This is an account of results in CN113501872A (INST PATHOGEN BIOLOGY CAMS, dated 2021).

This assay deals with SARS-CoV-2刺突蛋白RBD区重组蛋白 (SARS-CoV-2, UniProt P0DTC2 319-541). The assay can be described thus: indirect ELISA, RBD protein coated, Fab supernatant. (In general: ELISA stands for enzyme-linked immunosorbent assay.)

B1: 人源抗SARS-CoV-2病毒Fab抗体SK1 (Fab, V domains shown)
VH: EVQLVESGGGLVQPGRSLRLSCAASGFIFDDYAMHWVRQAPGKGLEWVSGISWNSGTIGYADSVKGRFIISRDNAKNSLYLQLNRLGVEDTALYYCVKDIYYRDRNLGFAFDIWGQGTMVTVSS
VL: DIQLTQSPSSLSASIGDTVTITCRASQSIDNYLHWYQKKPGIAPKLLISATSTLENGVPSRFSGSRSGTDFTLTISSLQIEDFATYYCQQGHSVPLTFGGGTKLEVR
notes: also called SK1 Fab
For B1, the binding result is “binds”.
